Target: T1, EcoR124I (Escherichia coli, UniProt P10484+P10485+P10486)
T1 sequence (P10485 1-404): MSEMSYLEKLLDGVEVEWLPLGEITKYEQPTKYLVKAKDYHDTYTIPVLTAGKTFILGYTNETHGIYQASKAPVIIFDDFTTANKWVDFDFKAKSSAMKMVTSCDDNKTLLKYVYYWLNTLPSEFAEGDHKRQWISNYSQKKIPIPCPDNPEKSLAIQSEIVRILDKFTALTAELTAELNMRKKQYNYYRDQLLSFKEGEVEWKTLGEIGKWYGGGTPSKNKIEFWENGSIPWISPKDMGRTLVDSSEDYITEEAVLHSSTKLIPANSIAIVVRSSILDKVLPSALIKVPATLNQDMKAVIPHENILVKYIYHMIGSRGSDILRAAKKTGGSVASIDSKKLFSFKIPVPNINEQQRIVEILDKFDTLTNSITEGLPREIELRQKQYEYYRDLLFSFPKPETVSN
T1 sequence (P10484 1-520): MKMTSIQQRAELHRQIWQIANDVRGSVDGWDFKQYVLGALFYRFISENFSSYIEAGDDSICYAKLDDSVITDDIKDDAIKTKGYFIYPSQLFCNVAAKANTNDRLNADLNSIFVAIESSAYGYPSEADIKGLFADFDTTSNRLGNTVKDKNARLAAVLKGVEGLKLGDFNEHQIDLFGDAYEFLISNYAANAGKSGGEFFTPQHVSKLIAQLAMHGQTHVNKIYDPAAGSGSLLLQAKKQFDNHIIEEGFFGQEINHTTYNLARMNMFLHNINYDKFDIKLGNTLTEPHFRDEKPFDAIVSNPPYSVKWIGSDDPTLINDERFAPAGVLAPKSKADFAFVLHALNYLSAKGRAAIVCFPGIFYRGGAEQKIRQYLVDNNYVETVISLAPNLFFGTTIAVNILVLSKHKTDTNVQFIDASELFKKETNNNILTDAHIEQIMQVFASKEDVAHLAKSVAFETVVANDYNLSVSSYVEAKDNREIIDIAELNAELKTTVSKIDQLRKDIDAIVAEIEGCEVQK
T1 sequence (P10486 1-1038): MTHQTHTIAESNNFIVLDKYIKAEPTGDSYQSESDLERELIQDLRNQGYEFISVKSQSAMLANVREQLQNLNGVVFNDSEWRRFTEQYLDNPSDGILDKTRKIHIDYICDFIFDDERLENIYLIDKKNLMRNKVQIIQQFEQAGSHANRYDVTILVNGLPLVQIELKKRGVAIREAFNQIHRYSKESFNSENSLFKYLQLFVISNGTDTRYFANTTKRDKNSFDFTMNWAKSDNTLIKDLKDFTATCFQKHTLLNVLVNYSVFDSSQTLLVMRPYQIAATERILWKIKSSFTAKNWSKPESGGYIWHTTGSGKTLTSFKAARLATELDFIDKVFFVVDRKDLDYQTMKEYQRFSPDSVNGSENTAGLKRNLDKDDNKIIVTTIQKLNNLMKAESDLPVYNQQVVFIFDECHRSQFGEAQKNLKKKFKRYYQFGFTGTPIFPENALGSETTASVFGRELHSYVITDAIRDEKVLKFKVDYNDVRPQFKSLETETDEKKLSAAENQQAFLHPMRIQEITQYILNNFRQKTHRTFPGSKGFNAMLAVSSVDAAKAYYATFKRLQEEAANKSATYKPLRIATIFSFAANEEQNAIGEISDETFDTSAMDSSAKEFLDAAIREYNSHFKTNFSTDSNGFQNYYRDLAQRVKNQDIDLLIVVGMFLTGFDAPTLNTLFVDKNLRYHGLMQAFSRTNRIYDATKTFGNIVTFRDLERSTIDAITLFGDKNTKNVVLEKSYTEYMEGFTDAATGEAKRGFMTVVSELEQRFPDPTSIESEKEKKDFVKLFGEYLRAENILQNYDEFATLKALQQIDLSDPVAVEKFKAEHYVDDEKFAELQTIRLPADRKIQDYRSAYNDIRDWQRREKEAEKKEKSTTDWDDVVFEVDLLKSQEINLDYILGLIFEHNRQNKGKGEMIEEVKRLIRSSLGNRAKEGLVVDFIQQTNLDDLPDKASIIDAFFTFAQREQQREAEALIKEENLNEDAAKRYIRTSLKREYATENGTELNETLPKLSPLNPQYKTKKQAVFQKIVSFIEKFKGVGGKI
Experiment: Coupled spectrophotometric ATPase assay
Type: biochemical
Conditions: EcoR124I pre-incubated with protein, reaction initiated by scDNA; Figure S1

## Ocr: anti-restriction protein of bacteriophage T7 (overcome classical restriction), mimics B-DNA
  Concentration at which ATP hydrolysis of EcoR124I is retarded / abolished: 100 nM
